Results: US20090304746A1
Like-named read-outs stand apart in the source and are kept apart here.

Key:
HLA-A*2401 (human) = experiment: competition with 125I-labelled standard peptide for purified HLA, gel filtration
HLA-A*3301 (human) [1] = target: HLA-A*3301 (human)
HLA-A*3101 (human) [2] = experiment: competition with 125I-labelled standard peptide on purified HLA, gel filtration
HLA-A*0301 (human) [3] = experiment: as above
HLA-A*6801 (human) [4] = experiment: as above
HLA-A*1101 (human) [5] = target: HLA-A*1101 (human)
HLA-A*1101 (human) [6] = experiment: competition with 125I-labeled standard peptide on purified HLA, gel filtration
HLA-A*3101 (human) [7] = experiment: as above
HLA-A*0301 (human) [8] = experiment: as above
HLA-A*6801 (human) [9] = experiment: as above
HLA-A*3301 (human) [10] = experiment: as above

B1: … (peptide)
peptide: NIVDVQYLY
modifications: not checked
**Q.** How did the binding affinity ratio (IC50 of standard peptide / IC50 of test peptide) (HLA-A*2401 (human)) turn out when B1 was run?
**A.** 0.0001

B2: HCV peptide … (polyprotein position 1236) (peptide)
peptide: PTGSGKSTK
modifications: not checked
**Q.** Which results are given for B2?
**A.** binding affinity ratio (IC50 of standard peptide / IC50 of test peptide) (HLA-A*3301 (human) [1]): 0.0006; binding affinity ratio (IC50 of standard peptide / IC50 of test peptide) (HLA-A*3101 (human) [2]): 0.0008; binding affinity ratio (IC50 of standard peptide / IC50 of test peptide) (HLA-A*0301 (human) [3]): 0.0002; binding affinity ratio (IC50 of standard peptide / IC50 of test peptide) (HLA-A*6801 (human) [4]): 0.0002

B3: … (peptide)
peptide: LSNSLLRHH
modifications: not checked
**Q.** How did the binding affinity ratio (IC50 of standard peptide / IC50 of test peptide) (HLA-A*1101 (human) [5]) turn out when B3 was run?
**A.** 0.0001

B4: HCV peptide … (HCV polyprotein position 1592) (peptide)
peptide: VAYQATVCAR
modifications: not checked
**Q.** With B4 as the binder, how does the binding affinity ratio (IC50 of standard peptide / IC50 of test peptide) (HLA-A*1101 (human) [6]) read?
**A.** 0.0036

**Q.** What about the binding affinity ratio (IC50 of standard peptide / IC50 of test peptide) (HLA-A*3101 (human) [7]) of the same binder?
**A.** 0.068

**Q.** And the binding affinity ratio (IC50 of standard peptide / IC50 of test peptide) (HLA-A*0301 (human) [8])?
**A.** 0.0005

**Q.** And the binding affinity ratio (IC50 of standard peptide / IC50 of test peptide) (HLA-A*6801 (human) [9])?
**A.** 0.028

**Q.** What about the binding affinity ratio (IC50 of standard peptide / IC50 of test peptide) (HLA-A*3301 (human) [10]) of the same binder?
**A.** 0.072
